Measurements reported in patent US6818612B2, “Use of parvovirus capsid particles in the inhibition of cell proliferation and migration” (priority 1998, dated 2004).

B1: VP2 capsids: B19 parvovirus capsids having only VP2 (protein)
chain: MTSVNSAEASTGAGGGGSNSVKSMWSEGATFSANSVTCTFSRQFLIPYDPEHHYKVFSPAASSCHNASGKEAKVCTISPIMGYSTPWRYLDFNALNLFFSPLEFQHLIENYGSIAPDALTVTISEIAVKDVTDKTGGGVQVTDSTTGRLCMLVDHEYKYPYVLGQGQDTLAPELPIWVYFPPQYAYLTVGDVNTQGISGDSKKLASEESAFYVLEHSSFQLLGTGGTASMSYKFPPVPPENLEGCSQHFYEMYNPLYGSRLGVPDTLGGDPKFRSLTHEDHAIQPQNFMPGPLVNSVSTKEGDSSNTGAGKALTGLSTGTSQNTRISLRPGPVSQPYHHWDTDKYVTGINAISHGQTTYGNAEDKEYQQGVGRFPNEKEQLKQLQGLNMHTYFPNKGTQQYTDQIERPLMVGSVWNRRALHYESQLWSKIPNLDDSFKTQFAALGGWGLHQPPPQIFLKILPQSGPIGGIKSMGITTLVQYAVGIMTVTMTFKLGPRKATGRWNPQPGVYPPHAAGHLPYVLYDPTATDAKQHHRHGYEKPEELWTAKSRVHPL

Columns and labels:
human fetal liver cells [1] = experiment: Colony formation assay (Stem cell CFU kit, 11 day) of fetal liver cells; format: cell-based; settings: FIG. 9
[2] = system: human umbilical vein endothelial cells (HUVEC); experiment: Endothelial cell proliferation assay (crystal violet, A540); format: cell-based
Protocol: To determine whether B19 parvovirus capsids can inhibit endothelial cell proliferation, assays were performed in which primary human umbilical vein endothelial cells, plated at a density of 1.5×10^4 cells per well in a 24 well plate, were incubated with B19 parvovirus capsids in the presence of 0.5% fetal calf serum+10.0 ng/ml basic fibroblast growth factor. The various B19 parvovirus capsid preparations (i.e., VP1/2 or capsids made with only VP1 or VP2) were added to each well on the following day and the cells with capsids were incubated for additional 72 hours. Cell proliferation was then determined by using a crystal violet dye assay. Accordingly, capsid treated cells were washed in PBS, fixed in 3.7% formaldehyde, and incubated with crystal violet. The dye was then removed by extensive washes with distilled water. The cell-associated crystal violet was solubilized with 10% acetic acid and quantified at absorbance 540 nm in an ELISA plate reader.
Thus, from left to right, the bars represent the absorbance at 540 nm with 0 μg/ml, 0.01 μg/ml, 0.1 μg/ml, 1.0 μg/ml, and 10.0 μg/ml. […] The standard deviation was within 10%.

HUVEC cells = experiment: Endothelial cell migration assay (modified Boyden chamber); format: cell-based, human
Protocol: The effect of B19 parvovirus capsid preparations on cell migration was also determined. The migration assays were performed using a modified Boyden chamber assay (Neuroprobe, Inc.). Basic fibroblast growth factor (40 ng/ml) was added to stimulate migration of the HUVEC cells through a collagen 1 coated 8 μm pore size millipore filter. Cells were incubated for 60 min with the various B19 parvovirus capsid preparations (i.e., VP1/2 or capsids made with only VP1 or VP2) prior to conducting the migration assay. To perform the migration assay, the Boyden chamber was incubated for 4.5 h at 37° C. in a 10% CO2 atmosphere. The filters were subsequently removed and were fixed in 3.7% formaldehyde. Cell migration was visualized by staining the filters overnight in Gill's Hematoxylin. The number of migrating cells were scored by counting stained cells on the migrating side of the filter per high power magnification field. (See FIG. 15).

human fetal liver cells [3] = experiment: Colony formation assay (Stem cell CFU kit, 11 day) of fetal liver cells; format: cell-based; settings: fetal liver cells
Description: In a first set of experiments, it was discovered that B19 parvovirus capsids inhibit hematopoiesis and that these molecules could be used to reduce the overproduction of red blood cells, white blood cells, and blood platelets, as is experienced by patients suffering from hematological proliferative diseases, such as Polycytemia Vera. (See FIG. 1A). In a first set of experiments, fresh human fetal liver cells, umbilical cord blood cells, and bone marrow cells were contacted with recombinant B19 parvovirus capsids in a colony formation assay. The general features of a colony formation assay are depicted in FIG. 1B. The ability of the B19 parvovirus capsids to inhibit hematopoiesis was verified by the reduction of colony formation in the presence of the capsids, as compared to untreated control populations of cells. A more detailed description of these experiments is provided below.
To obtain fetal liver tissue, human fetuses 6-12 weeks of gestational age were obtained from legal abortions; the patients had volunteered to donate fetal tissue. Gestational age was estimated according to specific anatomical markers and is given as menstruational age. Abortions were performed with vacuum aspirations. Fetal liver was dissected under sterile conditions, placed in a sterile tube containing RPMI1640 and disintegrated by passage through a vinyl mesh to form a single cell suspension. Nucleated cells were then washed three times, counted and diluted in culture medium.
A commercial kit—the “Stem cell CFU kit” (GIBCO BRL, Life Technology Inc., NY, USA)—was used to perform the colony formation assays. The kit provides a semi-solid support that mimics the extracellular matrix produced by stromal cells. Other components included in the kit are: Iscove's modified Dulbecco's medium, modified fetal bovine serum, methylcellulose, 2-mercaptoethanol, conditioned medium and erythropoietin. The colonies that were formed in the assay were identified as BFU-E (burst forming unit-erythroid cells) with densely packed hemoglobonized cells, CFU-GM (colony forming units-granulocytes, macrophages) with arrangements of non-hemoglobinized cells, and CFU-GEMM (colony forming units-granulocytes, erythroid cells, macrophages, megakaryocytes) with hemoglobinized cells and small and large peripheral cells.
Recombinant B19 parvovirus empty capsid particles (Kajigaya et al., Proc Natl Acad Sci USA, 88:4646 (1991)) were prepared in a recombinant baculovirus-insect cell (Spodofera frugiperda) expression system. (Kajigaya et al., Proc Natl Acad Sci USA, 88:4646 (1991)). The isolated or purified capsids were diluted in buffer (20 mM Tris, 0.5M NaCl, pH 8.5) and 30 μL of each dilution was added to approximately 25×10^3 cells (50×10^3 for postnatal cells) in 100 μL of culture medium and incubated for 1 hour at 4° C. The mixtures were then transferred to incubation dishes and culture medium was added to a final volume of 0.5 ml per well. The cells were then incubated for 11 days in a humidified atmosphere at 5% CO2, and were scored for BFU-E, CFU-GM and CFU-GEMM derived colony formation.

| Molecule | inhibition of hematopoiesis and cell growth (colony formation) by deletion series peptides (human fetal liver cells [1]) | inhibition of endothelial cell proliferation ([2]; 10.0 μg/ml, FIG. 14) | lowest concentration that efficiently inhibits endothelial cell proliferation ([2]; 72 hours, 10.0 ng/ml basic fibroblast growth factor, FIG. 14, 'as low as') [µg/mL] | inhibition of endothelial cell migration compared with other capsid preparations (HUVEC cells; FIG. 15) | lowest concentration that effectively inhibited endothelial cell migration (HUVEC cells; basic fibroblast growth factor 40 ng/ml, FIG. 15, 'as low as') [µg/mL] | inhibition of colony formation (human fetal liver cells [3]; 1 μg/ml VP2 capsid, FIG. 4) | colony formation, % of the control (human fetal liver cells [3]; 30 μg/mL, FIG. 5) | inhibition of hematopoietic cell growth (human fetal liver cells [3]; 30 μg/ml, FIG. 3) | lowest concentration at which inhibition of colony formation of hematopoietic cells was seen (human fetal liver cells [3]; 11 day colony formation assay, 'as little as' / 'as low as') [µg/mL] | inhibition of colony formation of hematopoietic stem cells compared with VP1/2 capsids (human fetal liver cells [3]; FIG. 4) |
| --- | --- | --- | --- | --- | --- | --- | --- | --- | --- | --- |
| NKGTQQYTDQ (OTHER INFORMATION: Peptide fragments derived from parvovirus capsid particles) [Peptide IV] | significantly inhibit hematopoiesis and cell growth | – | – | – | – | – | – | – | – | – |
| QQY [Peptide VIII] | significantly inhibit hematopoiesis and cell growth | – | – | – | – | – | – | – | – | – |
| B1 | – | significant inhibition | 1.0 | significantly more potent than that observed with either native capsids (VP1/2) or capsids having only VP1 | 1 | Approximately 50% | less than 30 % of the control | significant inhibition | 3 | as effectively as VP1/2 capsids |
